In article PMC8605104 (STAR Protocols, 2021):

Columns and labels:
[1] = molecular target: T1, bacteriophage T7 ejection protein gp16 (internal virion protein), N-terminal 10x His-tagged, full-length (bacteriophage T7, UniProt P03726 1-1318)
T1 sequence (looked up): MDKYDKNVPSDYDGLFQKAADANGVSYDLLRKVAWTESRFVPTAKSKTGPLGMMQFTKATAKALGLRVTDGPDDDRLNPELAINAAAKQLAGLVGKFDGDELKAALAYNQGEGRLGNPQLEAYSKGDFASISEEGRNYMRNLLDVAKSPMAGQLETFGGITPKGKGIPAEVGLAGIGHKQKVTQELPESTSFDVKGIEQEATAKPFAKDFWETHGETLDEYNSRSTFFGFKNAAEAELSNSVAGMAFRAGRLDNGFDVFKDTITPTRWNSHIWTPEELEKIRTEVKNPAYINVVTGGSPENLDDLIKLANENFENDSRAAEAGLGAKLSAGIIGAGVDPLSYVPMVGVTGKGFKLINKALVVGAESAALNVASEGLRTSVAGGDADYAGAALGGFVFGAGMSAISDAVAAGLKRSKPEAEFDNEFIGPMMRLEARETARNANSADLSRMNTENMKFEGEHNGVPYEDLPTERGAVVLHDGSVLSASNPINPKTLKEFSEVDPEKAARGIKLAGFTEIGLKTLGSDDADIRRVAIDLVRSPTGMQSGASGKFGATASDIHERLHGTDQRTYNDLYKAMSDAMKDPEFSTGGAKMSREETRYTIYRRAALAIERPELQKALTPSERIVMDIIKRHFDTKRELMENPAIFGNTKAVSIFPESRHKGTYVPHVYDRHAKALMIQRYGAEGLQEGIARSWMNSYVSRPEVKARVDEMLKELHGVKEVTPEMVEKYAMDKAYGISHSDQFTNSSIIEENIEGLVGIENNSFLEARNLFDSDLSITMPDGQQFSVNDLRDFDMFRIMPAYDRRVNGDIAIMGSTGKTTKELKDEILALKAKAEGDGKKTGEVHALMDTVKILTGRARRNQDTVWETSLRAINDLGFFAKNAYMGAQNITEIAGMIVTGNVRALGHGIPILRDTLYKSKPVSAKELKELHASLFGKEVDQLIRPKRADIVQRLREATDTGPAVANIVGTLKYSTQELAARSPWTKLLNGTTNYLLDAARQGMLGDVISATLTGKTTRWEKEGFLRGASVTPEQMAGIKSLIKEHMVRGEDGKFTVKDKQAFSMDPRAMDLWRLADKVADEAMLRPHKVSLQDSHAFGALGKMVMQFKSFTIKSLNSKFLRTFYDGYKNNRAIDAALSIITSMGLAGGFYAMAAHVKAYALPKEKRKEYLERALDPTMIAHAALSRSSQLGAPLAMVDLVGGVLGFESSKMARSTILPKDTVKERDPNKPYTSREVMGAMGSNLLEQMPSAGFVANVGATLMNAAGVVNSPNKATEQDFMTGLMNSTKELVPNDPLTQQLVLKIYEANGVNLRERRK

[2] = molecular target: the molecule itself

B1: bacteriophage T7 ejection protein gp15 (internal virion protein), N-terminal 10x His-tagged, full-length (natural protein, UniProt P03725 1-747, looked up)
chain: MSKIESALQAAQPGLSRLRGGAGGMGYRAATTQAEQPRSSLLDTIGRFAKAGADMYTAKEQRARDLADERSNEIIRKLTPEQRREALNNGTLLYQDDPYAMEALRVKTGRNAAYLVDDDVMQKIKEGVFRTREEMEEYRHSRLQEGAKVYAEQFGIDPEDVDYQRGFNGDITERNISLYGAHDNFLSQQAQKGAIMNSRVELNGVLQDPDMLRRPDSADFFEKYIDNGLVTGAIPSDAQATQLISQAFSDASSRAGGADFLMRVGDKKVTLNGATTTYRELIGEEQWNALMVTAQRSQFETDAKLNEQYRLKINSALNQEDPRTAWEMLQGIKAELDKVQPDEQMTPQREWLISAQEQVQNQMNAWTKAQAKALDDSMKSMNKLDVIDKQFQKRINGEWVSTDFKDMPVNENTGEFKHSDMVNYANKKLAEIDSMDIPDGAKDAMKLKYLQADSKDGAFRTAIGTMVTDAGQEWSAAVINGKLPERTPAMDALRRIRNADPQLIAALYPDQAELFLTMDMMDKQGIDPQVILDADRLTVKRSKEQRFEDDKAFESALNASKAPEIARMPASLRESARKIYDSVKYRSGNESMAMEQMTKFLKESTYTFTGDDVDGDTVGVIPKNMMQVNSDPKSWEQGRDILEEARKGIIASNPWITNKQLTMYSQGDSIYLMDTTGQVRVRYDKELLSKVWSENQKKLEEKAREKALADVNKRAPIVAATKAREAAAKRVREKRKQTPKFIYGRKE
[1]
  stoichiometry N: 1 gp15:gp16 (6:6)
[2]
  stoichiometry N: 6
